Measurements taken from patent US5882644A, “Monoclonal antibodies specific for the platelet derived growth factor β receptor and methods of use thereof” (Protein Design Labs, Inc., priority 1996, dated 1999).

Columns and labels:
PDGF-R β = assay: Competition with 125I-labeled murine antibody tracer on Sp2/0 PDGF-R β transfectant cells; type: binding, human; settings: calculated from competitive binding data; Sp2/0 PDGF-R β transfectants
Experimental: To assess the ability of HuM4TS.22 to compete with muM4TS.22 for receptor binding, increasing concentrations of the two antibodies were respectively incubated on ice for one hour with Sp2/0 PDGF-R β transfectant cells and a fixed amount of tracer ^125 I-labeled muAb. The sample tubes were processed as in the blocking experiment just described.
To assess the ability of HuM4TS.11 to compete with the muAb for receptor binding, increasing concentrations of the two antibodies were respectively incubated on ice for one hour with Sp2/0 PDGF-R β transfectant cells and a fixed amount of tracer ^125 I-labeled M4TS.11. The sample tubes were processed as in the blocking experiment described. […] The binding affinities calculated from the data were: Ka =5×10^8 M^-1 for the muAb and 3×10^7 M^-1 for the HuAb.

[1] = system: intima of left common carotid artery after balloon injury; assay: Rat carotid balloon injury model, intimal thickening; type: in vivo; settings: 21 days after injury
From the text: To perform the vascular injury, under sterile conditions and after general anesthesia the left common carotid arteries of S-D rats were exposed. Anesthesia was induced with ketamine and xilaxine by IP injection. Additional anesthesia was given at half a dose every forty-five minutes. Through a midline neck incision the left common, external and internal carotid arteries were exposed. A 2F Fogarty balloon catheter was introduced in the left external carotid artery. The balloon was inflated sufficiently to generate slight resistance and withdrawn 3 times to consistently produce endothelial denudation of the entire length of the left common carotid artery (LCCA), thus simulating vascular injury after balloon angioplasty in human patients. Upon removal of the catheter, the left external carotid artery was ligated with 3.0 silk. The skin was closed with surgical wound clips. […]
For measurement of intimal thickening, the left common carotid arteries were sectioned every 3 mm, from the proximal to the distal end. […] Cross-sectional areas for lumen, intima and media of the artery were determined as a mean of the 3 segments with the greatest intimal thickness. […] Differences between placebo or control groups and treated groups were analyzed for statistical significance by analysis of variance and a two-tailed, unpaired Student's t test […]

B1: muM4TS.11: murine monoclonal antibody to PDGF-R β, variable regions SEQ ID NOS:10 and 12; epitope in fourth extracellular domain (antibody, V domains shown)
VL: METETLLLWVLLLWVPGSTGDIVLTQSPPSLAVSLGQRATISCRASESVDSYGNSFMHWYQQKPGQPPKLLIYRASNLESGIPARFSGGGSRTDFTLTINPVEADDVATYYCQQSNEDPPTFGGGTKLEIK
VH: MERHWIFLFLFSVTAGVHSQVQLQQSGAEVAKPGASVKMSCKASGYTFTNCWMHWVKQRPGQGLEWIGYINPTTGYSEYNQNFKDKATLTADKSSNTAYIQLSSLTSEDSAVYYCTSNYGHYDWFANWGQGTLVT
PDGF-R β
  binding affinity Ka: 5e+08 M⁻¹
[1]; high dose: 4 mg bolus, then 2 mg IV every 24 hr for 4 days
  less thickening of the artery intima than placebo or control groups: approximately 60%
[1]; low dose: 10% of the high-dose regimen
  less thickening of the artery intima than placebo or control groups: approximately 40%
